For four molecules, IC50 results are on record in patent US20070203071A1 (published 2007).

Non-standard residues stand in square brackets, D forms with d. No end group written: not given here. Bpa = N[C@@H](Cc1ccc(C(=O)c2ccccc2)cc1)C(=O)O; hArg = N=C(N)NCCCC[C@H](N)C(=O)O; Ac5c = NC1(C(=O)O)CCCC1; Deg = CCC(N)(CC)C(=O)O; desNH2 = X is (desNH2); Aib = CC(C)(N)C(=O)O

B1: Deg1,3 (peptide)
peptide: [Deg]V[Deg]EIQLMHQ[hArg]AKW-NH2
modifications: N-terminus assumed
SMILES: CC[C@H](C)[C@H](NC(=O)[C@H](CCC(=O)O)NC(=O)C(CC)(CC)NC(=O)[C@@H](NC(=O)C(N)(CC)CC)C(C)C)C(=O)N[C@@H](CCC(N)=O)C(=O)N[C@@H](CC(C)C)C(=O)N[C@@H](CCSC)C(=O)N[C@@H](Cc1c[nH]cn1)C(=O)N[C@@H](CCC(N)=O)C(=O)N[C@@H](CCCCNC(=N)N)C(=O)N[C@@H](C)C(=O)N[C@@H](CCCCN)C(=O)N[C@@H](Cc1c[nH]c2ccccc12)C(N)=O
B2: parent (peptide)
peptide: [Ac5c]V[Aib]EIQLMHQ[hArg]AKW-NH2
modifications: N-terminus assumed
SMILES: CC[C@H](C)[C@H](NC(=O)[C@H](CCC(=O)O)NC(=O)C(C)(C)NC(=O)[C@@H](NC(=O)C1(N)CCCC1)C(C)C)C(=O)N[C@@H](CCC(N)=O)C(=O)N[C@@H](CC(C)C)C(=O)N[C@@H](CCSC)C(=O)N[C@@H](Cc1c[nH]cn1)C(=O)N[C@@H](CCC(N)=O)C(=O)N[C@@H](CCCCNC(=N)N)C(=O)N[C@@H](C)C(=O)N[C@@H](CCCCN)C(=O)N[C@@H](Cc1c[nH]c2ccccc12)C(N)=O
B3: Deg1,3,Bpa2 (peptide)
peptide: [Deg][Bpa][Deg]EIQLMHQ[hArg]AKW-NH2
modifications: N-terminus assumed
SMILES: CC[C@H](C)[C@H](NC(=O)[C@H](CCC(=O)O)NC(=O)C(CC)(CC)NC(=O)[C@H](Cc1ccc(C(=O)c2ccccc2)cc1)NC(=O)C(N)(CC)CC)C(=O)N[C@@H](CCC(N)=O)C(=O)N[C@@H](CC(C)C)C(=O)N[C@@H](CCSC)C(=O)N[C@@H](Cc1c[nH]cn1)C(=O)N[C@@H](CCC(N)=O)C(=O)N[C@@H](CCCCNC(=N)N)C(=O)N[C@@H](C)C(=O)N[C@@H](CCCCN)C(=O)N[C@@H](Cc1c[nH]c2ccccc12)C(N)=O

This assay deals with -. Description: competition binding, 125I-PTH(1-15) tracer, HKRK-B28 cells.
In turn, B1 displayed a half-maximal inhibitory concentration (IC50) of 230 nM. This counts as sub-micromolar.

The molecule B2 came in with a 50% inhibitory concentration (IC50) of 30 nM. This IC50 lies about 7.7-fold lower than the previous one.

Consider B3, for which the IC50 came to 840 nM. In the case of desNH2-[Ac5c]V[Aib]EIQLMHQ[hArg]AKW-NH2 [desNH2-AC5C1] it was 1800 nM.

As a reminder, the IC50 is the midpoint of a concentration-inhibition curve. Low readings indicate higher potency, high ones lower potency.
